The target of this assay is T1, recombinant HTNV Gn ectodomain (residues 18 to 371) (Hantaan virus (Orthohantavirus …)).
T1 construct: also called N-terminal ectodomain of HTNV Gn; soluble HTNV Gn ectodomain
Put plainly: crystal structure. Particulars: both partners purified.

Here are results for two molecules from paper PMC8406324, “Structural Basis for a Neutralizing Antibody Response Elicited by a Recombinant Hantaan Virus Gn Immunogen” (mBio, 2021).

B1: Fab HTN-Gn1 (Fab, V domains shown)
VH: QSLVESGGDLVKPEGSLTLTCTASGFSFSSTHWICWVRQAPGKGLEWIACIYVGNTYDSYYANWAKGRFTISKTSSTTVTLQMTTLTAADTATYFCARSGSVFGVVSLWGPGTLVTVSS
VL: GQVLTQTPASVSEPVEGTVTIKCQASQSINNWLSWYQQRPGQPPKLLIYDASTVASGVSSRFKGSGSGTEFTLTISDLECADAATYACQSYGYGISITDNSAFGGGTEVVVR
notes: also called HTN-Gn1-Fab; HTNV-Gn1-Fab
As to B1, the binding result is on record as “binds”.

B2: Fab nnHTN-Gn2 (Fab, V domains shown)
VH: QSLEESGGRLVTPGTPLTLTCTVSGFSLSNYNMQWVRQAPGKGLEWIGIVYTGGVAWYARWAKGRFTISRTSTTVDLKITSPTTEDTATYFCARAYTSNSDIVFDPWGPGTLVTVSS
VL: GQVLTQTPASVSAAVGGTVTIKCQASQSVSTALAWYQQKPGQRPKLLIYLASTLTSGVPSRFKGSGSGTEFTLTISGVECDDAATYYCQQGYSYSNVDNSFGGGTEVVVK
notes: also called Fab nnHTNV-Gn2
Turning to B2, the binding result is on record as “binds”.
